Tests used:
[1] = biological target: T1, mouse PRLR construct with an HA tag on HEK293/mPRLR cells (mouse, UniProt Q08501 20-608); assay: FACS on HEK293/mPRLR cells
T1 construct: whole, on cells; stably transfected into HEK293
T1 sequence (looked up): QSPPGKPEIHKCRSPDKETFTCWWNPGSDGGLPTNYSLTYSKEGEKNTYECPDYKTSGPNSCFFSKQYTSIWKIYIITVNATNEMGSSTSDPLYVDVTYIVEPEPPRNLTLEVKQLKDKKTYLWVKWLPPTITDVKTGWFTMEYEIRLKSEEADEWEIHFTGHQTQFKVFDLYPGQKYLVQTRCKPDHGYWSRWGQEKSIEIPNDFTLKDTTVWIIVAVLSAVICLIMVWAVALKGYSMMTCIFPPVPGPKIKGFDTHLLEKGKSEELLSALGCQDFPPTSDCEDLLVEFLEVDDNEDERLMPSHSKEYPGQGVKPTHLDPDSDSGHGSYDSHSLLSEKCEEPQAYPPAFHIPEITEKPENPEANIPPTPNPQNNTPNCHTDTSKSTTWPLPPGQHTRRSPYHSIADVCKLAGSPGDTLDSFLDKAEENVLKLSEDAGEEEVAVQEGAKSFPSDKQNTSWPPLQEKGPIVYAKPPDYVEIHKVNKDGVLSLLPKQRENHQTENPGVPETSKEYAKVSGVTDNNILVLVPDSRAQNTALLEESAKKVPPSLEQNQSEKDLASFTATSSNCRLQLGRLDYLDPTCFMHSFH

[2] = biological target: T2, hPRLR.mmh (soluble monomeric human PRLR) (human); assay: SPR (Biacore), antibody capture, 37 C
T2 construct: soluble monomeric PRLR protein
T2 chain: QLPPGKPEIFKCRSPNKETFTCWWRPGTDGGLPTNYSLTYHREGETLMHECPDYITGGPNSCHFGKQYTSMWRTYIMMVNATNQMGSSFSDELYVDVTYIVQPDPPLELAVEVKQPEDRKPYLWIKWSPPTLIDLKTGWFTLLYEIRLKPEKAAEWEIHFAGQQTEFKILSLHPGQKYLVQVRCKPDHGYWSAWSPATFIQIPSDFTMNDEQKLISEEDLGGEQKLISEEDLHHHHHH
Method: (§1) Measurements were conducted on a T200 Biacore instrument. Kinetic association (kₐ) and dissociation (kd) rate constants were determined by processing and fitting the data to a 1:1 binding model using Scrubber 2.0 curve fitting software.

[3] = biological target: T3, mfPRLR.mmh (soluble monomeric macaca fascicularis PRLR) (macaca fascicularis); assay: SPR (Biacore), antibody capture, 37 C
T3 construct: soluble monomeric PRLR protein; also called macaca fascicularis (mf) PRLR.mmh; monkey PRLR
T3 chain: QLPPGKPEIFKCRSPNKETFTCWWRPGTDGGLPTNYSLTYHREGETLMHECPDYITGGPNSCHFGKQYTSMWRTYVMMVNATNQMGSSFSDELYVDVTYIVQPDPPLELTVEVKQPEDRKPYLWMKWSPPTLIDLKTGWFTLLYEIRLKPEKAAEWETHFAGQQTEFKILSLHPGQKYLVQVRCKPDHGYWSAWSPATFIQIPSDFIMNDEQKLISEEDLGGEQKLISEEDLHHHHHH
Method: as §1

FACS Cell Binding (Fold Above Background) [1]: 2 fold
Kd [2]: 681 nM
T 1/2 [2]: 24 s
koff [2]: 0.0277 s⁻¹
kon [2]: 40600 M⁻¹ s⁻¹
Kd [3]: 370 nM
T 1/2 [3]: 42 s
koff [3]: 0.0165 s⁻¹
kon [3]: 44600 M⁻¹ s⁻¹
B1: H1H6959N2 (antibody, human IgG1, V domains shown)
VH: EVQLVESGGGLVQPGRSLRLSCAASGFTFDDYAMHWVRQAPGKGLEWVSGISWHSGIIGYADSVKGRFTISRDNAKNSLYLQMNSLRTEDAALYYCAKIGSYFYFDSWGQGTLVTVSS
VL: EIVLTQSPGTLSLSPGERATLSCRASQSVSSNYLAWYQQKPGQAPRLLIYGASSRATGIPDRFSGSGSGTDFTLTISRLEPEDFAVYYCQQFGSSGYTFGQGTNLEIK
notes: also called H2M6959N2
